Laboratory results as given in patent US20140109263A1.
pIC50: −log10 of the molar value.

What was measured:
[1] = target: receptor proteins in midgut brush border membrane vesicles (BBMV's) from fall armyworm (FAW; Spodoptera frugiperda) larvae (Spodoptera frugiperda); assay: heterologous competition: 1,000 nM unlabeled Cry1Da against 125I Cry1Ea on FAW BBMV's, FIG. 4
[2] = target: receptor proteins in midgut brush border membrane vesicles (BBMV's) from fall armyworm (FAW; Spodoptera frugiperda) larvae (Spodoptera frugiperda); assay: homologous competition: unlabeled Cry1Ea against 0.5 nM 125I Cry1Ea on FAW BBMV's (150 ug/ml), FIG. 1
[3] = target: receptor proteins in midgut brush border membrane vesicles (BBMV's) from fall armyworm (FAW; Spodoptera frugiperda) larvae (Spodoptera frugiperda); assay: homologous competition: unlabeled Cry1Ea against 125I Cry1Ea on FAW BBMV's, FIG. 3

Substance	percent displacement of ^125I Cry1Ea [1] [%]	pIC50 [2]	pIC50 [3]
Cry1Da protein, trypsinized (protease-processed Cry1Da) (from UniProt P19415 28-603)	40		
Cry1Ea protein, trypsin-cleaved activated form (protease-processed Cry1Ea) (from UniProt Q57458 1-612)		9.00	9.00
